The nanobody polyreactivity screen of Harvey et al. (2022)

Assay: yeast display, Sf9 membrane polyspecificity reagent, FACS + sequencing; frameworks hold sequencing errors
Procedure, shortened: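 Using colony PCR, genes from sorted yeast display clones were amplified, then sequenced on MiSeq at 2 × 250 and filtered by CDR length. The clones had been stained with 10% biotinylated, detergent-solubilized Sf9 membrane reagent for 1 hour at 4 °C and sorted by FACS into low and high (top ~1%) gates on anti-HA and streptavidin fluorescence. Polyreactivity labels come from the gate of origin.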

Sequence	polyreactivity (PSR sort gate)
QGQLVESGGGLVQAGGKLRLSCAASGSIFVRYAIGWYRQAPGKERELVAAISTRGDTTYYADSVKGRFTNSRDNAKNTVYLQLNSLKPEDTAVFYCAAVASQYPGPRNYDYWGQGTQVTVSS	low polyreactivity
QGQLVESGGGLVQAGGRLRLSCAASGSIFASYAMGWYRQAPGKERELVAAITSDGNTYYADSVKGRFTISRDNAKNTVYLQMNSLKPEDTAVYYCAADRYSTYPYAKGTEFYYWGQGTQVTVSS	low polyreactivity
QGQLVESGGGLVQAGGRLRLSCAASGSTFYGNAMGWYRQAPGKERELVAAITWGDASTYYADSVKGRFTISRDNAKNPVYLQMNSLKPEDTAVSYCAVDESYGSSSDMDYWGQGTQVTVSS	low polyreactivity
QGQLVESGGGLVQAGGSIRLSCAAYGSTFNVNAMGLYRQAPGKERELVAAISRSCVSTYYADSVKWRFTISRDNAKNTVYLQMNSLKPEDTAVYYCNAYPGNWRGYRMDYWGQGNQVTVSS	high polyreactivity
QGQLVESGGGLVQAGGSLRFSCAASGRTLSAHAMGWYREAPGTERELVATISTRGGRTYYADSVKGRFTISRDHAKNTVYIQMNSLKPEHTAVYSCAVTIRAKYTLKEDYWGQGTQVTVSS	low polyreactivity
QGQLVESGGGLVQAGGSLRISSAASGGNFPGNTMGWYRLAPGKESELVAAISNGVSTNYADSVKGGFTISRDNAKNTVYLQMNSQKPEDTAVYYCAAEWSWWDGEDYHFEYDYWGQGTQVTVSS	low polyreactivity
QGQLVESGGGLVQAGGSLRLSCAASGFIFFYYAMGWYRQAPRKERELVATISANGGNTYYADSVKGRFTISRDNAKNTVYLQMNSLKPEDTAVSYCARYTWYLRDWQWYYWGDEDYWGQGTQVTVSS	high polyreactivity
QGQLVESGGGLVQAGGSLRLSCAASGFIFRYYTMGWYRQAPGKERELVAAITSRGGSTYYADSVKGRFTISRDNAKNTFYLQMNSLKPEDTAVYYCATTRWGYEYWGQGTQVTVSS	high polyreactivity
QGQLVESGGGLVQAGGSLRLSCAASGFIFSKYAMGWYRQAPGKERELVAAISYRTVRTYYADSVKGRFTISRDNAKNTVDLQMNSLKPEDTAVYYCAADSRYWLYDYWGQGTQVTVSS	high polyreactivity
QGQLVESGGGLVQAGGSLRLSCAASGFNFRRYAMGWYRHAPGKERELVAVITSGGSTYYADSVKGRFTISRDYAKNTVYLQMNSLKPEDTAVYYCASRYYWYSQEYVLSSWWGDYWGLGTQVTVSS	high polyreactivity
QGQLVESGGGLVQAGGSLRLSCAASGFTFRGYAMGWYRQAPGKERELVATITSGGDTNDADSVKGRFTISRDNAKKTVYLQMNSLKPEDTAVYYCAAHDWEFVEEAGPVPWTPYDYWGQGTQVTVSS	low polyreactivity
QGQLVESGGGLVQAGGSLRLSCAASGFTFVYNAMGWYRQAPGKERELVAAITSGGNTYYADSVKGRFTISRDNAKNTVYLQMNSLKPEDTAVYYCAALSYYRFSQEDDYWGQGTQVTVSS	high polyreactivity
QGQLVESGGGLVQAGGSLRLSCAASGGIFDSNAMGWYRQARGKERELVAAISDSGGSTYYADSVKGRFTITRDNAKNTVYLQMNSLKTDDTAVYDCAADSDYHFLNYRFGMDYWGQGTQVTVSS	low polyreactivity
QGQLVESGGGLVQAGGSLRLSCAASGGIFTDYAMGWYRQAPGKERELVAAITRRGGRTYYADSVKGRFTISRDNAKNPVYLQMNSLKPEDTAVYYCAATRSGEYDYWGQGTQVTVSS	high polyreactivity
QGQLVESGGGLVQAGGSLRLSCAASGIILSAYALGWYRQAPGNERELVAAITRRGGRTYYADSVKGRFTISRDNAKNTVYLQMNSLKPEDTAVYYCATVQSGRVRTYDYWGQGTQVTVSS	high polyreactivity
QGQLVESGGGLVQAGGSLRLSCAASGISLKYAMGWYRQAPGKERELVASISSRGTSTYYADSVKGRFTISRDNAMNTVYLQMNSLKPEDTAVYYCNTVPPYWWGYWYKGDHWGQGTQGTVSS	high polyreactivity
QGQLVESGGGLVQAGGSLRLSCAASGRIFVANAMGWYRQAPGKERELVAAISGRGSRTYYADSVKGRFTISRDNAKKTVYIQMNSLKPEETAVYSCAARYRYDGRYDYWGPGTQVTVSS	high polyreactivity
QGQLVESGGGLVQAGGSLRLSCAASGRIFVIYAMGWYRQAPGKERELVAAISSRGGTTYYADSVKGRFTISRDNAKNTVYLQMNSLKPEDTAGYYCNVARFYHIYDYWGQGTHVTVSS	high polyreactivity
QGQLVESGGGLVQAGGSLRLSCAASGRIFVTYAMGWYRQAPGKERELVATINSGGSTYYADSVKGRFTISRDNAKNTVYLQMNSLKPEDTAVYYCNTDFGQAHTLSWYEDMDYWGQGTQVTVSS	low polyreactivity
QGQLVESGGGLVQAGGSLRLSCAASGRIFYQNDMGWYIQAPGKERELVADIASGGSTYYADSVKGRFTISRDNAKNTVYLQMNSLKPEDTAVYYCASAVLYGDGWYYYWGQGTQVTVSS	low polyreactivity
QGQLVESGGGLVQAGGSLRLSCAASGRSVARYAMGGYRQAPGKERELVAAITVSGDNTYYADSVKGRFTISRDNAKNTVYLQMNSLKPEDTAVYYCAVRAVLLIGFFEYDYWGQGTQVTVSS	low polyreactivity
QGQLVESGGGLVQAGGSLRLSCAASGRTFKVYAMGWYRQAPGKERELVAAISFSGGSTYYADSVKGRFTISRDNAKNTVYLQMNSLKPEDTAVYYCATTYPGAIRDYWGQGTQVTVSS	high polyreactivity
QGQLVESGGGLVQAGGSLRLSCAASGRTFRYNAMGWYRQAPGKERELVAAITWGGGSTDYADSVKGRFTISRDNAKNTVYLQMHSLKPEDTAVYYCNADYIGNYHSIYQYDYWGQGTQVTVSS	low polyreactivity
QGQLVESGGGLVQAGGSLRLSCAASGRTFVRNAMGWSSQGPGKEREWVAAISSIGDSTYYAYSLKGRFTISRDNAKNTVYLQLNTLKPEDTAVYYCAAECVTSYYNYYHWGQGTQVTVSS	low polyreactivity
QGQLVESGGGLVQAGGSLRLSCAASGSIFGENAMGWYRPAPGKERELVAAISSAGSTKYADSVKGRFTISRDNAKNTVYLQMNSLKPEDTAVYYCAAGYYRTSYPYSYYYWGQGTQVTVSS	low polyreactivity
QGQLVESGGGLVQAGGSLRLSCAASGSIFLGYAMGWYRQAPRKERELVAVITKSRGRTYYADSVKGRFTISRDNAKNTVYFQMNSLKPEDTAVYYCAKQPGSAYDYWGQGTQVTVSS	high polyreactivity
QGQLVESGGGLVQAGGSLRLSCAASGSIFRAYAMGWNRQAPGKERELVAAISWGGGSTSYADSVKGRFTISRDNAMNTVYLQMNSLKPEDTAVYYCAAELYLSRLRYWYDYWGHGTQVTVSS	high polyreactivity
QGQLVESGGGLVQAGGSLRLSCAASGSIFSHYAMGWYRQAPGKEMELVAAISRSGGSTYYADSVKGRFTISRDNAKNTVYLQMNCLKPEDTAVYYCAKEGDSGYWFDYWGQGTQVTVSS	low polyreactivity
QGQLVESGGGLVQAGGSLRLSCAASGSIFVRNAMGWYRQAPGKERELVAADSVKGRFTISRDNAKNTVYLQMNSLKPEDTAVYYCNKDYIIRRGAIVYYGFDYWGHGTQVTVSS	low polyreactivity
QGQLVESGGGLVQAGGSLRLSCAASGSSFANYDMGRYRQAPGKERELVAAITSDGSTYYADSVKGRFTISRDNAKNTVYLQMNSLKPEDTAVYYCAASTPSDAWVDDWGQGTQVTVSS	low polyreactivity
